According to publication PMC6039492, “Oligomerization of a G protein-coupled receptor in neurons controlled by its structural dynamics” (Scientific Reports, 2018):
“And” between values parts separate entries of the source, which are not always exact repeats. Equal entries are not always repeated.

Legend:
[1] = molecular target: the molecule itself; assay: two-photon scanning number and brightness (sN&B) fluctuation microscopy; live cultured rat hippocampal neurons, SNAP-tag labelled with Alexa488, with antagonist (400 nM LY341495) during labelling and imaging; numbers for 90-600 subunits/Veff
[2] = molecular target: the molecule itself; assay: two-photon scanning number and brightness (sN&B) fluctuation microscopy; live cultured rat hippocampal neurons, SNAP-tag labelled with Alexa488, with agonist and PAM (10 nM LY379268 + 3 μM BINA) during labelling and imaging; numbers for 90-600 subunits/Veff
[3] = molecular target: the molecule itself; assay: two-photon scanning number and brightness (sN&B) fluctuation microscopy; live cultured rat hippocampal neurons, SNAP-tag labelled with Alexa488, incubated with 150 μM CuP, bound to antagonist (400 nM LY341495); 90-600 subunits/Veff; apparent stoichiometry (lower with CuP)
[4] = molecular target: the molecule itself; assay: two-photon scanning number and brightness (sN&B) fluctuation microscopy; live cultured rat hippocampal neurons, SNAP-tag labelled with Alexa488, incubated with 150 μM CuP for the last 10 min of labelling, imaged in the absence of ligand; 90-600 subunits/Veff; apparent stoichiometry (lower with CuP)
[5] = molecular target: the molecule itself; assay: two-photon scanning number and brightness (sN&B) fluctuation microscopy; live cultured rat hippocampal neurons, cell-surface SNAP-tagged receptor labelled with Alexa488, imaging buffer pH 7.3, no ligand (basal); numbers for expression of 90-600 subunits/Veff; brightness normalised to monomeric Alexa488

B1: metabotropic glutamate receptor type 2 (mGlu2), wild type, with a SNAP-tag fused to the extracellular N-terminus (HA-ST-mGlu2) (receptor, rat, UniProt P31421 19-872, looked up)
chain: EGPAKKVLTLEGDLVLGGLFPVHQKGGPAEECGPVNEHRGIQRLEAMLFALDRINRDPHLLPGVRLGAHILDSCSKDTHALEQALDFVRASLSRGADGSRHICPDGSYATHSDAPTAVTGVIGGSYSDVSIQVANLLRLFQIPQISYASTSAKLSDKSRYDYFARTVPPDFFQAKAMAEILRFFNWTYVSTVASEGDYGETGIEAFELEARARNICVATSEKVGRAMSRAAFEGVVRALLQKPSARVAVLFTRSEDARELLAATQRLNASFTWVASDGWGALESVVAGSERAAEGAITIELASYPISDFASYFQSLDPWNNSRNPWFREFWEERFHCSFRQRDCAAHSLRAVPFEQESKIMFVVNAVYAMAHALHNMHRALCPNTTHLCDAMRPVNGRRLYKDFVLNVKFDAPFRPADTDDEVRFDRFGDGIGRYNIFTYLRAGSGRYRYQKVGYWAEGLTLDTSFIPWASPSAGPLPASRCSEPCLQNEVKSVQPGEVCCWLCIPCQPYEYRLDEFTCADCGLGYWPNASLTGCFELPQEYIRWGDAWAVGPVTIACLGALATLFVLGVFVRHNATPVVKASGRELCYILLGGVFLCYCMTFVFIAKPSTAVCTLRRLGLGTAFSVCYSALLTKTNRIARIFGGAREGAQRPRFISPASQVAICLALISGQLLIVAAWLVVEAPGTGKETAPERREVVTLRCNHRDASMLGSLAYNVLLIALCTLYAFKTRKCPENFNEAKFIGFTMYTTCIIWLAFLPIFYVTSSDYRVQTTTMCVSVSLSGSVVLGCLFAPKLHIILFQPQKNVVSHRAPTSRFGSAAPRASANLGQGSGSQFVPTVCNGREVVDSTTSSL
modifications: Alexa488 (BG-Alexa488) covalently on the SNAP-tag
notes: metabotropic glutamate receptor 2 (mGlu2), rat, wild type; HA-tag and SNAP-tag inserted just after the signal peptide; pRK5 plasmid, CMV promoter exchanged for the synapsin-1 promoter; also called mGlu2 receptor; wild type receptor; source: cultured rat hippocampal neurons, transfected (Lipofectamine 2000), on live cells; not shown: SNAP-tag, N-terminal, kept
stoichiometry N [1]: 3.7 subunits/complex
stoichiometry N [2]: 4 subunits/complex
stoichiometry N [3]: 3 subunits/complex
stoichiometry N [4]: 1.7 subunits/complex
stoichiometry N [5]: 2.2 subunits per complex and 1.66 subunits/complex
